Consider six molecules from patent publication US20170029841A1, “METHODS AND COMPOSITIONS FOR SELECTIVE REGULATION OF PROTEIN EXPRESSION” (priority 2015, published 2017).

Read-outs that look alike come from different tables or passages of the source.

Series [1] concerns transgenic maize R0 plants (double copy events). Put plainly: R0 plant greenhouse glyphosate spray: vegetative tolerance and induced male sterility. In kind it is in vivo. The note with it: for % Vegetative Tolerant / % Vegetative Tolerance: glyphosate 0.75 lb ae/acre at V5 then V8; for % Vegetative Tolerant: <=10% injury 7 days after V5 spray. Here is the method:
Transformation vectors containing the recombinant DNA constructs were used with an Agrobacterium-based transformation method and maize immature embryos and techniques known in the art. Leaf samples of R0 plants were collected and molecular analysis was conducted to select transgenic plants containing a single copy (one insertion) or a double copy (two independent insertions) of the recombinant DNA construct and no presence of vector backbone. Single copy events were not sprayed with glyphosate and were selfed and advanced for R1 seed collection, while double copy events were used for R0 glyphosate spray to assess vegetative tolerance and induced male sterility. Transgenic plants that were not sprayed with glyphosate had normal anthesis, normal pollen shedding, and normal pollen development as determined by Alexandar staining and microscopic observation.
Double copy R0 events were used in testing to approximate a single copy homozygous event. Plants were sprayed with glyphosate at two different growth stages to determine if the presence of the mts-siRNA target element in the recombinant DNA construct provided vegetative glyphosate tolerance and glyphosate-induced tassel sterility. The plants were sprayed in a greenhouse with 1× glyphosate (0.75 lb ae/acre) applied at the V5 stage followed by 1× glyphosate (0.75 lb ae/acre) applied at the V8 stage. Seven days after the V5 stage glyphosate application, plants were scored for vegetative injury with scores of ≦10% injury considered as showing vegetative glyphosate tolerance (% Vegetative Tolerant). Male sterility was measured in two ways. […] Anthers were then collected and dissected to microscopically observe pollen development. Anthers for each event were tested for no viable pollen grains produced as detected by Alexandar staining under microscopic observation and scored as not producing any viable pollen (% No Pollen). In plants not sprayed with glyphosate, tassel development, anther extrusion, and pollen development were normal.
The mts-siRNA target elements were tested in multiple transformation vector configurations. Each transformation vector was used to produce multiple R0 plants with each R0 plant representing a unique transgenic event made using the same transformation vector. Data for three different transformation vector configurations are provided as Tables 11 and 12.

Series [2] concerns transgenic maize plants. The conditions noted are these: for AES90+8 (LSD = 10): average anther extrusion at S90+8, same glyphosate regimen; for CIPVT (LSD = 8.1): glyphosate 1.5 lbs ae/acre at V2, 0.75 at V8, 0.75 at V10, range over events; for Seed Yield bu/acre (LSD = 24.7): end of season; for Avg. plant height (inches) (LSD = 6.9): in vivo.
Where [3] appears, read: vector configuration A, no viable pollen by Alexandar staining.
Setting [4] is: vector configuration A, no anther extrusion up to S90+12 after V8 glyphosate.

B1: SEQ ID NO: 5: mts-siRNA target element, nucleotide positions 239 to 433 of cDNA SEQ ID NO: 19 (nucleic acid)
DNA: TGGCTGCTTCTGTTGGCGTGAAAGCTCGAGTGCTCCTAAATGGTCGTCGTATTAGCTGATACGACATCTACCCGATGCAATAGATAATATTGTTTACACGCGTGAGTC
modifications: chemistry not fully specified; the letters are possibly those of the target site
Consider B1, for which the “% Vegetative Tolerant” value in series [1] (vector configuration A, listed as 5) came to 90%. Besides, in series [1] (vector configuration A, no anther extrusion up to S90+12 after V8 glyphosate, listed as 5), the “% Completely Male-sterile” value is given as 50%. Also, the “% No Pollen” value in series [1] (setting [3]) came out at 0%. In series [2] (listed as 5), the “AES90+8 (LSD = 10)” value is recorded as 10%-20% and the “CIPVT (LSD = 8.1)” value was determined as 5%. Besides, in series [2], the “CIPVT (LSD = 8.1)” value is reported as “No significant difference”.

B2: SEQ ID NO: 7: mts-siRNA target element, nucleotide positions 1357 to 1562 of cDNA SEQ ID NO: 20 (nucleic acid)
DNA: GGAACCGGTGACCAGCTGCACGACGATGAATCCTACAAGACGACCATGTAATACACAGTGTCGTCCTCTTCGTTCTACTACTCAACAGAGCAGTCGCCGACCAATAACGAATGGAGTATTATCTCTGTCCTTCACCTTACACCATATTCACACCATAGAACTGCAAATGTCCGAGGTACCAACTAACATCGGTACCTTTGGCATGA
modifications: Zea mays
With B2, in series [1] (vector configuration A, listed as 7), the “% Vegetative Tolerant” value is recorded as 88%. The “% Completely Male-sterile” value in series [1] (vector configuration A, no anther extrusion up to S90+12 after V8 glyphosate, listed as 7) is listed as 100%. In series [1] (setting [3]), the “% No Pollen” value came to 44%. For the same molecule, in series [2], the “AES90+8 (LSD = 10)” value was 0-1.5%, the “Seed Yield bu/acre (LSD = 24.7)” value is “no significant decrease”, the “CIPVT (LSD = 8.1)” value is on record as “No significant difference” and the “Avg. plant height (inches) (LSD = 6.9)” value is recorded as “No significant difference”. In series [2] (listed as 7), the “AES90+8 (LSD = 10)” value was 0-1.5%, the “Seed Yield bu/acre (LSD = 24.7)” value is given as 100-110 bu/acre, the “CIPVT (LSD = 8.1)” value is on record as 3.75-5% and the “Avg. plant height (inches) (LSD = 6.9)” value is recorded as 79.8 inches.

B3: SEQ ID NO: 6: mts-siRNA target element, nucleotide positions 370 to 477 of cDNA SEQ ID NO: 19 (nucleic acid)
DNA: TCGCCGAGAAGGGAGTAGTAGTATTACCTGATATCTATGCTAATTCAGGTGGTGTGGTCGTTAGCTACTTTAATTGAGTGGGTTCAGAACATTCAAGGTTTCATGTGG
modifications: chemistry not fully specified; the letters are possibly those of the target site
Take B3: the “% Vegetative Tolerant” value in series [1] (vector configuration A) was 90%. Further, the “% Completely Male-sterile” value in series [1] (setting [4]) came out at 82%. Moreover, the “% No Pollen” value in series [1] (setting [3]) was determined as 0%. In series [2] (listed as 6), the “AES90+8 (LSD = 10)” value came to 25%. Besides, the “CIPVT (LSD = 8.1)” value in series [2] is on record as “No significant difference”; in series [2] (listed as 6), 3.75%.

B4: SEQ ID NO: 8: mts-siRNA target element, nucleotide positions 247 to 441 of cDNA SEQ ID NO: 21 (nucleic acid)
DNA: AGATTGGTCATACACTAGATAGGGCTAGATCACTCGGGTCGCCACAAGTTGAAGAATGCAAAGAGTGTCCACATGATTTCATGGTGATGAACAGTGATTTTATGAGCAAACTAGCAAAGGATAATCAGTTGCATATATGTGATGAAGACCGATCAGTTTCCGAGCAAAGTAGCAAATGAGTCATCGAAGCTGTCA
modifications: Zea mays
Consider B4, for which the “% Vegetative Tolerant” value in series [1] (vector configuration A, listed as 8) is given as 90%. In addition, the “% Completely Male-sterile” value in series [1] (vector configuration A, no anther extrusion up to S90+12 after V8 glyphosate, listed as 8) came out at 100%. Further, the “% No Pollen” value in series [1] (setting [3]) was determined as 50%. In series [2] (listed as 8), the “AES90+8 (LSD = 10)” value is 15.75-17.85%, the “CIPVT (LSD = 8.1)” value was 2.5-2.7% and the “Avg. plant height (inches) (LSD = 6.9)” value was 80.1 inches. Also, in series [2], the “Seed Yield bu/acre (LSD = 24.7)” value is on record as 80-90 bu/acre, the “CIPVT (LSD = 8.1)” value is recorded as “No significant difference” and the “Avg. plant height (inches) (LSD = 6.9)” value is “No significant difference”.

B5: SEQ ID NO: 4: mts-siRNA target element, nucleotide positions 477 to 697 of cDNA SEQ ID NO: 18 (nucleic acid)
DNA: ACGAGGGAATGTCATTGGTCGATGAGTTGGAGGCGTCAAATGCAGATAAAGCTACAACTTCCATGTGGAGGATGACTGCGACGTTGTGGCAGACTCATCCACTACAGTGAGAGTCTAGGAAAGCATGAAGCCGATTGTGGACATCGATGTCGGTGTCAAGGACTTATAGATGTCATGTTGGGAGAGCAACCATGGCACGATAGTTAAGGCGCAAGGGTATC
modifications: Zea mays
For B5, the “% Vegetative Tolerant” value in series [1] (vector configuration A) was 86%. In series [1] (setting [4]), the “% Completely Male-sterile” value was found to be 7%. In addition, in series [1] (setting [3]), the “% No Pollen” value amounted to 0%. Further, in series [2] (listed as 4), the “AES90+8 (LSD = 10)” value is on record as 16.25-18.75% and the “CIPVT (LSD = 8.1)” value is 1.25-3.75%. For the same molecule, in series [2], the “Seed Yield bu/acre (LSD = 24.7)” value is recorded as 70-80 bu/acre and the “CIPVT (LSD = 8.1)” value is given as “No significant difference”.

B6: SEQ ID NO: 1: mts-siRNA target element, 95% identity to nucleotide positions 1429 to 1628 of cDNA SEQ ID NO: 17 (nucleic acid)
DNA: AGACGACGACCGTGCATGGTGATGAATCACAGACGACGAACACGCATGTCGCATCGCCGTCCTCTTTGTATCACACAGCATCACCTTCTTCGCTCTACTACTCCCCCGAGCAATCACCGACCAATAACACCAACCATCAACCTCCCCCGTCGCCGCCGCCTTCACCGTCCTCCCCTCACACCATAGAACTGCAAATGTCCG
With B6, in series [1] (vector configuration B), the “% Completely Male-sterile” value was 100%, the “% No Pollen” value worked out at 100% and the “% Vegetative Tolerance” value came out at 67%. Also, in series [1] (vector configuration C), the “% Completely Male-sterile” value was found to be 100%, the “% No Pollen” value came to 60% and the “% Vegetative Tolerance” value is given as 38%. In series [2], the “AES90+8 (LSD = 10)” value is listed as 0-2.75%, the “Seed Yield bu/acre (LSD = 24.7)” value is “no significant decrease”, the “CIPVT (LSD = 8.1)” value is recorded as “No significant difference” and the “Avg. plant height (inches) (LSD = 6.9)” value is reported as “No significant difference”. Further, in series [2] (listed as 1), the “AES90+8 (LSD = 10)” value is 0-2.75%, the “Seed Yield bu/acre (LSD = 24.7)” value was 97-99 bu/acre, the “CIPVT (LSD = 8.1)” value is listed as 2.5-6.25% and the “Avg. plant height (inches) (LSD = 6.9)” value turned out to be 84.75 inches.
